Results on one molecule are retold here after patent US20210270842A1 (DYAX, published 2021).

By EC50 is commonly meant the concentration at which the effect is half-maximal. As a reminder, the EC50 (read off the curve) is the midpoint of the concentration-response curve. A low value points to higher potency in that assay.

The target in test [1] is T1, cleaved high molecular weight kininogen (HMWK) (human, UniProt P01042 19-380; P01042 390-644).
T1 construct: also called cleaved HMWK; 2-chain HMWK
T1 sequence 1: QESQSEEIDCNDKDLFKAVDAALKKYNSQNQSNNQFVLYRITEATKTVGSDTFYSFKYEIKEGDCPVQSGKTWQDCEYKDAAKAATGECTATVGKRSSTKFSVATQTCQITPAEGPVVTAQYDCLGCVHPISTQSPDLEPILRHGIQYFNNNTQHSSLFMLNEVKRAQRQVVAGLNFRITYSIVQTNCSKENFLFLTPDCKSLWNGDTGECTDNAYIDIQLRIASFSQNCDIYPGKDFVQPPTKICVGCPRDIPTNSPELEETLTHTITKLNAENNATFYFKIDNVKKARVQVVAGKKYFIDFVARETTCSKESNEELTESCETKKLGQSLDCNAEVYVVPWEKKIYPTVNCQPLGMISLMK
T1 sequence 2: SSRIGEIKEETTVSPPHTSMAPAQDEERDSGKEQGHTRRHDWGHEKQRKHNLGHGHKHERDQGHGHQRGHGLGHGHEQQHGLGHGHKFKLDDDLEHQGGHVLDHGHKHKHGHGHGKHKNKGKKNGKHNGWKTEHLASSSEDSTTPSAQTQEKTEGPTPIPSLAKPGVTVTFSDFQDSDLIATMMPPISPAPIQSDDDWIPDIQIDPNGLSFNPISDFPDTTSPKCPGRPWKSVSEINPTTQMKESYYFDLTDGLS
In words: sandwich ELISA with coated Fab; value = C, midpoint of the printed 4-P fit; 2-chain HMWK spiked into SBT buffer, analysed in 10% plasma. The source says: Purified cleaved HMWK was spiked into SBT assay buffer (open circles), SBT assay buffer and analyzed in the presence of 10% plasma (squares), or HMWK-deficient plasma and analyzed in the presence of 10% plasma (triangles). Purified cleaved HMWK was also spiked into assay buffer and analyzed in the presence of 2.5% plasma (diamonds) or HMWK deficient plasma and analyzed in the presence of 2.5% plasma (closed circles). The y-axis presents the ELISA signal in absorbance units, and the x-axis presents the concentration of kininogen in μg/mL.
The following day, the plate was washed and then blocked with 2% BSA (Protease/IgG free) in PBS buffer. Following a wash, samples containing cleaved HMWK in 0.1% BSA buffer in PBS with 0.05% Tween-20 (2-Chain HMWK assay buffer). Purified protein standards (e.g., 2-chain HMWK, intact HMWK or LMWK) were spiked into HMWK-deficient plasma and diluted 1:320 in 2-chain HMWK assay buffer. Following plate washing with PBST, a mixture of 2 mouse monoclonal antibodies (11H05 and 13B12) at 1 μg/mL in 2-chain HMWK assay buffer were added for 1 hour at room temperature. […] Signal was detected by the addition of 3,3′,5,5′-tetramethylbenzidine (TMB), an HRP substrate. […] Hydrolysis of a TMB substrate was detected using a microplate reader at 450 nm-630 nm (FIG. 3). […] Using these immunoassay conditions, specifically binding to cleaved HMWK was detected.
For orientation: In an ELISA, binding on a coated surface is turned into a signal by an enzyme label.

The target of test [2] is T1, cleaved high molecular weight kininogen …. The test can be described thus: 2-chain HMWK sandwich ELISA standard curve, citrated plasma spiked with 2-chain HMWK, 10% final dilution; capture Fab M0004-B04 as in FIG. 12 B.
Test [3] concerns the target T2, intact high molecular weight kininogen (HMWK) (Homo sapiens, UniProt P01042 19-644).
T2 construct: also called intact HMWK; 1-chain HMWK
T2 sequence: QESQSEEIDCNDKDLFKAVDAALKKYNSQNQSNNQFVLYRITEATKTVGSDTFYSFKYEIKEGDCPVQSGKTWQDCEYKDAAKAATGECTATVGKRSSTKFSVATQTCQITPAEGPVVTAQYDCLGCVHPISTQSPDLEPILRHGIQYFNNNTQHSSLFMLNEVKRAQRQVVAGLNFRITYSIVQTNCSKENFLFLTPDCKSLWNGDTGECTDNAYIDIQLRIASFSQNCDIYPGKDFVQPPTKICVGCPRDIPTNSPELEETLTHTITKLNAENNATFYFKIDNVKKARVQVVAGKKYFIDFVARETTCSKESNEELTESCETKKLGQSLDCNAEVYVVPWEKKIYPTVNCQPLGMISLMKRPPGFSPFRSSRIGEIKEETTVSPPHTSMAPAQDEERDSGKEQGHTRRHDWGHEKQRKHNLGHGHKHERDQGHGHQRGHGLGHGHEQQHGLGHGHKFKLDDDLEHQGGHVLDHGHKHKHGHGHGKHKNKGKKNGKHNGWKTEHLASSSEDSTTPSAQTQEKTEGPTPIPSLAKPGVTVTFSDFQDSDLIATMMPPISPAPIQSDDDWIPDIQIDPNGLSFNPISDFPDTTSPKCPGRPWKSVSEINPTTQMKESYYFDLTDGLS
The test can be described thus: optimized sandwich ELISA: M004-B04 capture, detection 11H05 + 13B12; value = C of the printed 4-P fit; the curve has no upper plateau in the range: last point about 0.95 at about 250 ng/mL, fitted line about 1.5 at 1000 ng/mL, so C and D are extrapolated. On the procedure: The following day, the plate was washed and then blocked with 2% BSA (Protease/IgG free) in PBS buffer. Following a wash, samples containing cleaved HMWK in 0.1% BSA buffer in PBS with 0.05% Tween-20 (2-Chain HMWK assay buffer). Purified protein standards (e.g., 2-chain HMWK, intact HMWK or LMWK) were spiked into HMWK-deficient plasma and diluted 1:320 in 2-chain HMWK assay buffer. Following plate washing with PBST, a mixture of 2 mouse monoclonal antibodies (11H05 and 13B12) at 1 μg/mL in 2-chain HMWK assay buffer were added for 1 hour at room temperature. Unbound detection antibodies were washed and a 1:2000 dilution of goat anti-mouse secondary antibody conjugated to horseradish peroxidase (HRP) was added. The assay containing the secondary antibody was incubated for 1 hour at room temperature, and unbound secondary antibody was removed by washing with 2-chain HMWK assay buffer. Signal was detected by the addition of 3,3′,5,5′-tetramethylbenzidine (TMB), an HRP substrate. The reaction was stopped with phosphoric acid. Hydrolysis of a TMB substrate was detected using a microplate reader at 450 nm-630 nm (FIG. 3). […] Using these immunoassay conditions, specifically binding to cleaved HMWK was detected.

B1: 559B-M0004-B04 (Fab, V domains shown)
VH: EVQLLESGGGLVQPGGSLRLSCAASGFTFSFYVMVWVRQAPGKGLEWVSGISPSGGNTAYADSVKGRFTISRDNSKNTLYLQMNSLRAEDTAVYYCARKLFYYDDTKGYFDFWGQGTLVTVSS
VL: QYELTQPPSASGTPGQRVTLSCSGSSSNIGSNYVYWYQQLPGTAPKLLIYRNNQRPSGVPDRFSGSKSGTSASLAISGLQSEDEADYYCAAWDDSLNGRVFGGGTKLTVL
notes: also called M004-B04
For the molecule B1, the EC50 is 184 µg/mL in test [1] and 0.355 µg/mL in test [3]. Besides, in test [2], the “EC50 (read off the curve)” value was ~0.1 µg/mL.
